Assays:
[1] = biological target: Xenopus activin receptor xActRIIB, expressed in Xenopus embryos from injected synthetic RNA (Xenopus) (UniProt P27041); assay: cell-based or functional assay
[2] = biological target: T1, Mouse activin receptor, full length (encoded by clone pmActR2), expressed on transfected COS cells (mouse, UniProt P27038 20-513); assay: competition with 125I activin A on COS cells transfected with pmActR2
T1 construct: also called mActRII; ActRII
Method: (§1) 10⁵ COS cells transfected with either pmActR1 or pmActR2, or 10⁶ untransfected COS cells, were plated in 6 well dishes and allowed to grow overnight. The cells were washed 2× with HDB, 0.1% BSA, and incubated at 22° for 90 minutes in 0.5 ml HDB, 0.1% BSA containing 100,000 cpm (approximately 1 ng, 75 pM) ¹²⁵I activin A (5 μg activin A was iodinated by chloramine T oxidation to a specific activity of 50-90 μCi/μg; iodinated activin A was purified on a 0.7×20 cm G-25 column) and varying amounts of unlabeled competitor hormone. Following binding, the cells were washed 3× with cold HDB, solubilized in 0.5 ml 0.5 N NaOH, removed from the dish and radioactivity was measured in a gamma counter. Data presented in FIG. 5 are expressed as % specific binding, where 100% specific binding is the difference between binding in the absence of competitor and binding in the presence of a 100 fold molar excess of unlabeled activin A. Binding parameters were determined using the program LIGAND [Munson P. J. and Rodbard, D., Anal. Biochem. 107:220-259 (1980)].
This affinity and specificity of binding match those observed following binding of activin A to a number of other activin-responsive cell types. […]

[3] = biological target: T2, Mouse activin receptor, C-terminally truncated (encoded by clone pmActR1), expressed on transfected COS cells (mouse, UniProt P27038 20-354); assay: 125I activin A competition radioreceptor assay on COS cells transfected with pmActR1; Scatchard/LIGAND
T2 construct: pmActR1 codes for a protein of 342 amino acids, the last 17 of them from the vector; It lacks a complete intracellular kinase domain; the real chain is truncated and its signal peptide (1-19) is removed
T2 sequence (P27038 20-354 limits assumed, form in doubt): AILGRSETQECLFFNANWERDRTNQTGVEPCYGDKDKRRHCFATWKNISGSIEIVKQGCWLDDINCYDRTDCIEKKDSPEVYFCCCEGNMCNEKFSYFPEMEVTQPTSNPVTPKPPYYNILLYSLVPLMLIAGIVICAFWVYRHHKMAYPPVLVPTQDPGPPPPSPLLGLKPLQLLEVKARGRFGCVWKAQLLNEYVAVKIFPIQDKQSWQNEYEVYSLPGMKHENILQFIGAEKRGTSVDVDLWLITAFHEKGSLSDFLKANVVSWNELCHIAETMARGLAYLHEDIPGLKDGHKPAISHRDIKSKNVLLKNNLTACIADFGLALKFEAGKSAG
Method: as §1
(§2) To verify that the cloned receptor is activin specific, competition binding experiments were performed on COS cells transiently transfected with either pmActR1 or pmActR2. […] This binding affinity is consistent with that measured on other activin-responsive cell types [see, for example, Campen, C. A. and Vale, W., Biochem. Biophys. Res. Comm. […]

[4] = biological target: T1, Mouse activin receptor, full length …; assay: 125I activin A competition radioreceptor assay on COS cells transfected with pmActR2; LIGAND
Method: as §1, §2

T1 sequence (P27038 20-513): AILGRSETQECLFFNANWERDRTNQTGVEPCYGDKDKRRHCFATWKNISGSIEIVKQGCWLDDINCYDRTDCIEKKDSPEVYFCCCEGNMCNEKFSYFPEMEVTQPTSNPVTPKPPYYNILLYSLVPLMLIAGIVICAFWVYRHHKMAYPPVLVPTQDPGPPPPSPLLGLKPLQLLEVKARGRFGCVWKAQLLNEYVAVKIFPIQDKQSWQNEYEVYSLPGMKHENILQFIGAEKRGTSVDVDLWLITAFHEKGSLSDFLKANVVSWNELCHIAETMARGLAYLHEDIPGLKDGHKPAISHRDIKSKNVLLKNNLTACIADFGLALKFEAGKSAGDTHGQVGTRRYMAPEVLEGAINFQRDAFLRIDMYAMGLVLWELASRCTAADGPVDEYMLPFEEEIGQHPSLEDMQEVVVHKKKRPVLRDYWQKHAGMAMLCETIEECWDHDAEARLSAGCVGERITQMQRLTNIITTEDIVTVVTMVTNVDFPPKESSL
Xenopus activin receptor xActRIIB, expressed in Xenopus embryos from injected synthetic RNA (Xenopus), sequence (P27041 other isoform, or with tags, fused parts or gaps): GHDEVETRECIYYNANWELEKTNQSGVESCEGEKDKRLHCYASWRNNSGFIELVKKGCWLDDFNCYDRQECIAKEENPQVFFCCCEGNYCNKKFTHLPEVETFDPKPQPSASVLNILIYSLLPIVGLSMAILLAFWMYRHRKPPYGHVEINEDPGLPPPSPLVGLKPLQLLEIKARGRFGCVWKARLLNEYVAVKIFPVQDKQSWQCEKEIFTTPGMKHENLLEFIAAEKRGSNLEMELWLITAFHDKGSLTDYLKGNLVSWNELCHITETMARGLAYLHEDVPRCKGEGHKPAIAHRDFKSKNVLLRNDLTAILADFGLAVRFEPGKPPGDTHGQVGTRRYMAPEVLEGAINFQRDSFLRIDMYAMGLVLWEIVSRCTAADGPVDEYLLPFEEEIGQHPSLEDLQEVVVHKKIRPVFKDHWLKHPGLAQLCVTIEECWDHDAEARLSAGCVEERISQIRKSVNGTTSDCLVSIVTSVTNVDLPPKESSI

## Purified porcine activin A (from UniProt P03970 309-424) (ligand)
[1]
  muscle-specific actin RNA in animal caps (ribonuclease protection assay); sensitivity to activin against control embryos, embryos injected with 0.4 ng xActRIIB RNA: 10 fold
  muscle-specific actin RNA in animal caps (ribonuclease protection assay); sensitivity to activin against control embryos, embryos injected with 2.0 ng xActRIIB RNA: 100 fold

B1: Recombinant human (rh) inhibin A (ligand)
chain 1: STPLMSWPWSPSALRLLQRPPEEPAAHANCHRVALNISFQELGWERWIVYPPSFIFHYCHGGCGLHIPPNLSLPVPGAPPTPAQPYSLLPGAQPCCAALPGTMRPLHVRTTSDGGYSFKYETVPNLLTQHCACI
chain 2: GLECDGKVNICCKKQFFVSFKDIGWNDWIIAPSGYHANYCEGECPSHIAGTSGSSLSFHSTVINHYRMRGHSPFANLKSCCVPTKLRPMSMLYYDDGQNIIKKDIQNMIVEECGCS
[2]
  fold lower potency than activin A in competition: ~10 fold

B2: Recombinant human (rh) activin A (ligand, UniProt P08476 311-426, looked up)
chain: GLECDGKVNICCKKQFFVSFKDIGWNDWIIAPSGYHANYCEGECPSHIAGTSGSSLSFHSTVINHYRMRGHSPFANLKSCCVPTKLRPMSMLYYDDGQNIIKKDIQNMIVEECGCS
notes: also called 125I activin A; iodinated activin A
[3]
  Kd: 0.18 nM
[4]
  Kd: 0.18 nM

B3: Recombinant human (rh) activin B (ligand, UniProt P09529 293-407, looked up)
chain: GLECDGRTNLCCRQQFFIDFRLIGWNDWIIAPTGYYGNYCEGSCPAYLAGVPGSASSFHTAVVNQYRMRGLNPGTVNSCCIPTKLSTMSMLYFDDEYNIVKRDVPNMIVEECGCA
[2]
  binding result: binds

From US20050186593A1 (SALK INSTITUTE FOR BIOLOGICAL STUDIES, published 2005)
